# Target: dBSM (bovine)
# Assay: ELISA
row,EC50 [nM],Binder
1,8.72,"2F3#633 (antibody, V domains shown) VH: EVQLLESGGGLVQPGGSLRLSCAASGFTFDSYAMSWVRQAPGKGLEWVSAISGSGASTYYADSVKGRFSISRDNSKNTLYLQMNSLRAEDTAVYYCAIRREYSGYTPFDYWGQGTLVTVSS VL: DIVMTQTPSSLSASVGDRVTITCRASQGISSWLAWYQQKPEKAPRSLIYAASSLQSGVPSRFSGSGSGTDFTLTISSLQPEDFATYYCQQYISYPYTFGQGTKLEIK"
2,24.4,"2F3#6 (antibody, V domains shown) VH: QVQLLESGGGLVQPGGSLRLSCAASGFTFDSYAMSWVRQAPGKGLEWVSAISGSGASTYYADSVKGRFSISRDNSKNTLYLQMNSLRAEDTAVYYCAIRREYSGYAPFDYWGQGTLVIVSS VL: DIVMTQTPSSLSASVGDRVTITCRASQGISSWLAWYQQKPEKAPRSLIYAASSLQSGVPSRFSGSGSGTDFTLTISSLQPEDFATYYCQQYISYPYTFGQGTKLEIK"
3,13.6,"2F3#1733 (antibody, V domains shown) VH: QITLRESGGGLVQPGGSLRLSCAASGFTFDSYAMSWVRQAPGKGLEWVSAISGSGHSTYYADSVKGRFSISRDNSKNTLYLQMNNLRAEDTAVYYCAIRREYSGYTPFDYWGQGTLVTVSS VL: DIVMTQTPSSLSASVGDRVTITCRASQGISSWLAWYQQKPEKAPRSLIYAASSLQSGVPSRFSGSGSGTDFTLTISSLQPEDFATYYCQQYISYPYTFGQGTKLEIK"
